Source: patent US20070299013A1 (CLEVELAND STATE UNIVERSITY, published 2007)
Each block holds one binder with its values, some of them ahead of it. Where no end group is shown, it is not given here. [ ]: non-standard residue; d: D form. sY = N[C@@H](Cc1ccc(OS(=O)(=O)O)cc1)C(=O)O

Tests used:
[1] = molecular target: T1, N-alpha-[(acetylthio)acetyl]-Phe-Pro-Arg-thrombin (ATA-FPR-thrombin) coupled to agarose through the active … (UniProt P00734 328-622); experiment: chromatography on 2.5 ml thrombin-agarose, LC/MS of fractions
Protocol: (§1) Since some of the peptides contain aromatic amino acid residues, their concentration was also measured by optical density.
(§2) Each run represents 400 μg of peptide. […] Elution was performed with 2M NaCl and was started at the point indicated by the arrow (fraction #30). The presence of the peptides in the corresponding fractions was monitored by absorbance at 280 nm (shown on the y axis) and by LC/MS (inset).

human prothrombin [2] = molecular target: T2, human prothrombin (human, UniProt P00734 44-622); experiment: cell-based or functional assay
human prothrombin [3] = molecular target: T2, human prothrombin; experiment: calculated from IC50 of prothrombinase inhibition, IC50=Ki(1+S0/Km), Km 0.4 µM, prothrombin 350 nM
Protocol: The buffer used in all cases was composed of 20 mM Hepes, 0.15 M NaCl, 5 mM CaCl₂, pH 7.4 [HBS(Ca²⁺), “assay buffer”]. […] All experiments were performed in triplicates or as indicated. The concentration of each peptide given in the figures and figure legends is their final concentration in the assay. The data were stored using the software FL WinLab (Perkin-Elmer Corp, Norwalk Conn.) and further analyzed and plotted with the software Prizm (GraphPad, San Diego, Calif.). In some cases the data were also analyzed and plotted using DeltaGraph (DeltaPoint, Monterey, Calif.).

human prothrombin [4] = molecular target: T2, human prothrombin; experiment: kinetic analysis of prothrombinase inhibition
[5] = molecular target: T1, N-alpha-[(acetylthio)acetyl]-Phe-Pro-Arg …; experiment: chromatography on 2.5 ml thrombin-agarose, A280
Protocol: as §1, §2

[6] = molecular target: T1, N-alpha-[(acetylthio)acetyl]-Phe-Pro-Arg …; experiment: chromatography on 2.5 ml thrombin-agarose, LC/MS of fraction #7 (before the salt elution)
Protocol: as §1, §2

human prothrombin [7] = molecular target: T2, human prothrombin; experiment: calculated from IC50 (1.6 µM) of prothrombinase inhibition, IC50=Ki(1+S0/Km)
Protocol: All experiments were performed in triplicates or as indicated. The concentration of each peptide given in the figures and figure legends is their final concentration in the assay. The data were stored using the software FL WinLab (Perkin-Elmer Corp, Norwalk Conn.) and further analyzed and plotted with the software Prizm (GraphPad, San Diego, Calif.). In some cases the data were also analyzed and plotted using DeltaGraph (DeltaPoint, Monterey, Calif.).

B1: double sulfonated peptide DYDYQ (1, 2), DY(-SO3)DY(-SO3)Q (peptide)
peptide: D[sY]D[sY]Q
notes: Sulfonated form of the factor Va 695-699 motif; also called D5Q1,2
- binding result (human prothrombin [4]): binds

B2: P15H control pentadecapeptide (amino acid sequence 337-351 from the middle portion of human factor Va heavy chain) (peptide)
peptide: PVIPANMDKKYRSQH
notes: Negative control peptide; also called control peptide
- binding result [5]: no binding (tested: 400 µg of peptide)

Binder: NRLAAALGIR (Last of five overlapping 10-mers) [HC5 peptide (from region 680-709 of human factor Va heavy chain)]
- binding result [6]: no binding (tested: 400 µg of peptide)

B3: pentapeptide DYDYQ (Asp695-Tyr696-Asp697-Tyr698-Gln699 of human factor Va heavy chain) (peptide)
peptide: DYDYQ
notes: Synthetic, non-sulfonated pentapeptide; also called D5Q
- IC50 of inhibition of prothrombinase function (human prothrombin [2]): 1.6 µM
- Ki (human prothrombin [7]): 0.85 µM

Binder: DYDYQNRLAA (Synthetic 10-residue peptide) [HC4 peptide (amino acid residues 695-704 of human factor Va heavy chain)]
- IC50 of inhibition of prothrombinase activity (DAPA thrombin formation assay) (human prothrombin [2]): 10 µM
- Ki (human prothrombin [3]): 5.3 µM

The remaining lines, values ahead:

- binding result [1]: no binding (tested: 400 µg of peptide)
Binder: LEPEDEESDA [HC2 peptide (from region 680-709 of human factor Va heavy chain)]

- IC50 of inhibition of prothrombinase activity (DAPA thrombin formation assay) (human prothrombin [2]): 12 µM
- Ki (human prothrombin [3]): 6.3 µM
Binder: EESDADYDYQ (Synthetic 10-residue peptide) [HC3 peptide (amino acid region 690-699 of human factor Va heavy chain)]

- binding result [1]: no binding (tested: 400 µg of peptide)
Binder: KMHDRLEPED (First of five overlapping 10-mers) [HC1 peptide (from region 680-709 of human factor Va heavy chain)]
